# Data from the supplement of paper PMC5998384.
# Assays:
# HeLa Kyoto [1] = assay: solubility in G1/S (NP-40 vs SDS abundance) (log2 ratio); higher = more soluble; conditions: cell cycle stage: G1/S
# HeLa Kyoto [2] = assay: solubility change mitosis vs G1/S (difference of NP-40 vs SDS log2 ratios) (log2 ratio difference); higher = more soluble in mitosis
# 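For solubility change mitosis vs G1/S (difference of NP-40 vs SDS log2 ratios) in this document: synchronized HeLa Kyoto cells (double thymidine block for G1/S, nocodazole release for mitosis), protein amounts in NP-40 versus SDS lysates quantified by mass spectrometry, three biological replicates.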
# 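For solubility in G1/S (NP-40 vs SDS abundance) in this document: HeLa Kyoto cells arrested at G1/S by double thymidine block, proteins quantified by TMT10plex mass spectrometry in mild NP-40 versus SDS extracts, three biological replicates.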
Sequence,solubility in G1/S (log2) (HeLa Kyoto [1]),solubility change mitosis (log2) (HeLa Kyoto [2])
MAKSPENSTLEEILGQYQRSLREHASRSIHQLTCALKEGDVTIGEDAPNLSFSTSVGNEDARTAWPELQQSHAVNQLKDLLRQQADKESEVSPSRRRKMSPLRSLEHEETNMPTMHDLVHTINDQSQYIHHLEAEVKFCKEELSGMKNKIQVVVLENEGLQQQLKSQRQEETLREQTLLDASGNMHNSWITTGEDSGVGETSKRPFSHDNADFGKAASAGEQLELEKLKLTYEEKCEIEESQLKFLRNDLAEYQRTCEDLKEQLKHKEFLLAANTCNRVGGLCLKCAQHEAVLSQTHTNVHMQTIERLVKERDDLMSALVSVRSSLADTQQREASAYEQVKQVLQISEEANFEKTKALIQCDQLRKELERQAERLEKELASQQEKRAIEKDMMKKEITKEREYMGSKMLILSQNIAQLEAQVEKVTKEKISAINQLEEIQSQLASREMDVTKVCGEMRYQLNKTNMEKDEAEKEHREFRAKTNRDLEIKDQEIEKLRIELDESKQHLEQEQQKAALAREECLRLTELLGESEHQLHLTRQEKDSIQQSFSKEAKAQALQAQQREQELTQKIQQMEAQHDKTENEQYLLLTSQNTFLTKLKEECCTLAKKLEQISQKTRSEIAQLSQEKRYTYDKLGKLQRRNEELEEQCVQHGRVHETMKQRLRQLDKHSQATAQQLVQLLSKQNQLLLERQSLSEEVDRLRTQLPSMPQSDC [SDCCAG8],0.52,0.0872
MALLRKINQVLLFLLIVTLCVILYKKVHKGTVPKNDADDESETPEELEEEIPVVICAAAGRMGATMAAINSIYSNTDANILFYVVGLRNTLTRIRKWIEHSKLREINFKIVEFNPMVLKGKIRPDSSRPELLQPLNFVRFYLPLLIHQHEKVIYLDDDVIVQGDIQELYDTTLALGHAAAFSDDCDLPSAQDINRLVGLQNTYMGYLDYRKKAIKDLGISPSTCSFNPGVIVANMTEWKHQRITKQLEKWMQKNVEENLYSSSLGGGVATSPMLIVFHGKYSTINPLWHIRHLGWNPDARYSEHFLQEAKLLHWNGRHKPWDFPSVHNDLWESWFVPDPAGIFKLNHHS [GLT8D2],0.233,-0.357
MALRLLRRAARGAAAAALLRLKASLAADIPRLGYSSSSHHKYIPRRAVLYVPGNDEKKIKKIPSLNVDCAVLDCEDGVAANKKNEARLRIVKTLEDIDLGPTEKCVRVNSVSSGLAEEDLETLLQSRVLPSSLMLPKVESPEEIQWFADKFSFHLKGRKLEQPMNLIPFVETAMGLLNFKAVCEETLKVGPQVGLFLDAVVFGGEDFRASIGATSSKETLDILYARQKIVVIAKAFGLQAIDLVYIDFRDGAGLLRQSREGAAMGFTGKQVIHPNQIAVVQEQFSPSPEKIKWAEELIAAFKEHQQLGKGAFTFQGSMIDMPLLKQAQNTVTLATSIKEK [CLYBL],-0.168,0.0246
MAMVVSSWRDPQDDVAGGNPGGPNPAAQAARGGGGGAGEQQQQAGSGAPHTPQTPGQPGAPATPGTAGDKGQGPPGSGQSQQHIECVVCGDKSSGKHYGQFTCEGCKSFFKRSVRRNLTYTCRANRNCPIDQHHRNQCQYCRLKKCLKVGMRREAVQRGRMPPTQPNPGQYALTNGDPLNGHCYLSGYISLLLRAEPYPTSRYGSQCMQPNNIMGIENICELAARLLFSAVEWARNIPFFPDLQITDQVSLLRLTWSELFVLNAAQCSMPLHVAPLLAAAGLHASPMSADRVVAFMDHIRIFQEQVEKLKALHVDSAEYSCLKAIVLFTSDACGLSDAAHIESLQEKSQCALEEYVRSQYPNQPSRFGKLLLRLPSLRTVSSSVIEQLFFVRLVGKTPIETLIRDMLLSGSSFNWPYMSIQCS [NR2F1],-0.152,0.0314
MAREPRKNAALDAQSAEDQTGLLTVKVEKEEASALTAEVRAPCSPARGPERSRQRFRGFRYPEAAGPREALSRLRELCGQWLQPEMHSKEQILELLVLEQFLTILPGNLQSWVREQHPESGEEVVVLLEYLERQLDEPAPQVPVGDQGQELLCCKMALLTQTQGSQSSQCQPMKALFKHESLGSQPLHDRVLQVPGLAQGGCCREDAMVASRLTPGSQGLLKMEDVALTLTPGWTQLDSSQVNLYRDEKQENHSSLVSLGGEIQTKSRDLPPVKKLPEKEHGKICHLREDIAQIPTHAEAGEQEGRLQRKQKNAIGSRRHYCHECGKSFAQSSGLTKHRRIHTGEKPYECEDCGKTFIGSSALVIHQRVHTGEKPYECEECGKVFSHSSNLIKHQRTHTGEKPYECDDCGKTFSQSCSLLEHHKIHTGEKPYQCNMCGKAFRRNSHLLRHQRIHGDKNVQNPEHGESWESQGRTESQWENTEAPVSYKCNECERSFTRNRSLIEHQKIHTGEKPYQCDTCGKGFTRTSYLVQHQRSHVGKKTLSQ [ZKSCAN4],-0.299,0.361
MARISFSYLCPASWYFTVPTVSPFLRQRVAFLGLFFISCLLLLMLIIDFRHWSASLPRDRQYERYLARVGELEATDTEDPNLNYGLVVDCGSSGSRIFVYFWPRHNGNPHDLLDIKQMRDRNSQPVVKKIKPGISAMADTPEHASDYLRPLLSFAAAHVPVKKHKETPLYILCTAGMRLLPERKQLAILADLVKDLPLEFDFLFSQSQAEVISGKQEGVYAWIGINFVLGRFDHEDESDAEATQELAAGRRRTVGILDMGGASLQIAYEVPTSTSVLPAKQEEAAKILLAEFNLGCDVQHTEHVYRVYVTTFLGFGGNFARQRYEDLVLNETLNKNRLLGQKTGLSPDNPFLDPCLPVGLTDVVERNSQVLHVRGRGDWVSCGAMLSPLLARSNTSQASLNGIYQSPIDFNNSEFYGFSEFFYCTEDVLRIGGRYHGPTFAKAAQDYCGMAWSVLTQRFKNGLFSSHADEHRLKYQCFKSAWMYQVLHEGFHFPYDYPNLRTAQLVYDREVQWTLGAILYKTRFLPLRDLRQEGVRQAHGSWFRLSFVYNHYLFFACILVVLLAIFLYLLRLRRIHHRQTRASAPLDLLWLEEVVPMMGVQVGP [ENTPD7],-0.358,0.145
MARKSNLPVLLVPFLLCQALVRCSSPLPLVVNTWPFKNATEAAWRALASGGSALDAVESGCAMCEREQCDGSVGFGGSPDELGETTLDAMIMDGTTMDVGAVGDLRRIKNAIGVARKVLEHTTHTLLVGESATTFAQSMGFINEDLSTTASQALHSDWLARNCQPNYWRNVIPDPSKYCGPYKPPGILKQDIPIHKETEDDRGHDTIGMVVIHKTGHIAAGTSTNGIKFKIHGRVGDSPIPGAGAYADDTAGAAAATGNGDILMRFLPSYQAVEYMRRGEDPTIACQKVISRIQKHFPEFFGAVICANVTGSYGAACNKLSTFTQFSFMVYNSEKNQPTEEKVDCI,0.0983,-0.136
MASEAPSPPRSPPPPTSPEPELAQLRRKVEKLERELRSCKRQVREIEKLLHHTERLYQNAESNNQELRTQVEELSKILQRGRNEDNKKSDVEVQTENHAPWSISDYFYQTYYNDVSLPNKVTELSDQQDQAIETSILNSKDHLQVENDAYPGTDRTENVKYRQVDHFASNSQEPASALATEDTSLEGSSLAESLRAAAEAAVSQTGFSYDENTGLYFDHSTGFYYDSENQLYYDPSTGIYYYCDVESGRYQFHSRVDLQPYPTSSTKQSKDKKLKKKRKDPDSSATNEEKDLNSEDQKAFSVEHTSCNEEENFANMKKKAKIGIHHKNSPPKVTVPTSGNTIESPLHENISNSTSFKDEKIMETDSEPEEGEITDSQTEDSYDEAITSEGNVTAEDSEDEDEDKIWPPCIRVIVIRSPVLQIGSLFIITAVNPATIGREKDMEHTLRIPEVGVSKFHAEIYFDHDLQSYVLVDQGSQNGTIVNGKQILQPKTKCDPYVLEHGDEVKIGETVLSFHIHPGSDTCDGCEPGQVRAHLRLDKKDESFVGPTLSKEEKELERRKELKKIRVKYGLQNTEYEDEKTLKNPKYKDRAGKRREQVGSEGTFQRDDAPASVHSEITDSNKGRKMLEKMGWKKGEGLGKDGGGMKTPIQLQLRRTHAGLGTGKPSSFEDVHLLQNKNKKNWDKARERFTENFPETKPQKDDPGTMPWVKGTLE [AGGF1],-0.292,-0.0218
MASGDLYEVERIVDKRKNKKGKWEYLIRWKGYGSTEDTWEPEHHLLHCEEFIDEFNGLHMSKDKRIKSGKQSSTSKLLRDSRGPSVEKLSHRPSDPGKSKGTSHKRKRINPPLAKPKKGYSGKPSSGGDRATKTVSYRTTPSGLQIMPLKKSQNGMENGDAGSEKDERHFGNGSHQPGLDLNDHVGEQDMGECDVNHATLAENGLGSALTNGGLNLHSPVKRKLEAEKDYVFDKRLRYSVRQNESNCRFRDIVVRKEEGFTHILLSSQTSDNNALTPEIMKEVRRALCNAATDDSKLLLLSAVGSVFCSGLDYSYLIGRLSSDRRKESTRIAEAIRDFVKAFIQFKKPIVVAINGPALGLGASILPLCDIVWASEKAWFQTPYATIRLTPAGCSSYTFPQILGVALANEMLFCGRKLTAQEACSRGLVSQVFWPTTFSQEVMLRVKEMASCSAVVLEESKCLVRSFLKSVLEDVNEKECLMLKQLWSSSKGLDSLFSYLQDKIYEV [CDYL2],-1.07,0.436
MASKKLGADFHGTFSYLDDVPFKTGDKFKTPAKVGLPIGFSLPDCLQVVREVQYDFSLEKKTIEWAEEIKKIEEAEREAECKIAEAEAKVNSKSGPEGDSKMSFSKTHSTATMPPPINPILASLQHNSILTPTRVSSSATKQKVLSPPHIKADFNLADFECEEDPFDNLELKTIDEKEELRNILVGTTGPIMAQLLDNNLPRGGSGSVLQDEEVLASLERATLDFKPLHKPNGFITLPQLGNCEKMSLSSKVSLPPIPAVSNIKSLSFPKLDSDDSNQKTAKLASTFHSTSCLRNGTFQNSLKPSTQSSASELNGHHTLGLSALNLDSGTEMPALTSSQMPSLSVLSVCTEESSPPNTGPTVTPPNFSVSQVPNMPSCPQAYSELQMLSPSERQCVETVVNMGYSYECVLRAMKKKGENIEQILDYLFAHGQLCEKGFDPLLVEEALEMHQCSEEKMMEFLQLMSKFKEMGFELKDIKEVLLLHNNDQDNALEDLMARAGAS [UBAP1],0.435,0.147
MASKRKSTTPCMVRTSQVVEQDVPEEVDRAKEKGIGTPQPDVAKDSWAAELENSSKENEVIEVKSMGESQSKKLQGGYECKYCPYSTQNLNEFTEHVDMQHPNVILNPLYVCAECNFTTKKYDSLSDHNSKFHPGEANFKLKLIKRNNQTVLEQSIETTNHVVSITTSGPGTGDSDSGISVSKTPIMKPGKPKADAKKVPKKPEEITPENHVEGTARLVTDTAEILSRLGGVELLQDTLGHVMPSVQLPPNINLVPKVPVPLNTTKYNSALDTNATMINSFNKFPYPTQAELSWLTAASKHPEEHIRIWFATQRLKHGISWSPEEVEEARKKMFNGTIQSVPPTITVLPAQLAPTKVTQPILQTALPCQILGQTSLVLTQVTSGSTTVSCSPITLAVAGVTNHGQKRPLVTPQAAPEPKRPHIAQVPEPPPKVANPPLTPASDRKKTKEQIAHLKASFLQSQFPDDAEVYRLIEVTGLARSEIKKWFSDHRYRCQRGIVHITSESLAKDQLAIAASRHGRTYHAYPDFAPQKFKEKTQGQVKILEDSFLKSSFPTQAELDRLRVETKLSRREIDSWFSERRKLRDSMEQAVLDSMGSGKKGQDVGAPNGALSRLDQLSGAQLTSSLPSPSPAIAKSQEQVHLLRSTFARTQWPTPQEYDQLAAKTGLVRTEIVRWFKENRCLLKTGTVKWMEQYQHQPMADDHGYDAVARKATKPMAESPKNGGDVVPQYYKDPKKLCEEDLEKLVTRVKVGSEPAKDCLPAKPSEATSDRSEGSSRDGQGSDENEESSVVDYVEVTVGEEDAISDRSDSWSQAAAEGVSELAESDSDCVPAEAGQA [ZHX2],0.134,-0.0666
